Among the data in patent US20260216058A1, “TRACE ELEMENT COMPOSITION, PREPARATION METHOD THEREFOR, AND USE THEREOF” (BEIJING ZANGWEIXINKANG PHARMACEUTICAL R&D CO., LTD., priority 2023, published 2026) are allergic reactions values, retold here.

For this data set, the system named is Hartley guinea pigs. As to the kind of experiment: Systemic active allergic reaction test in guinea pigs. It counts as in vivo, guinea pig. Particulars: 40 mg/mL. From the text: Systemic active allergic reaction test in guinea pigs: Hartley guinea pigs, SPF grade, source: Beijing Vital River Laboratory Animal Technology Co., Ltd., animal production license No.: SCXK (JING) 2016-0011, test animal certification No.: No. 110011201110221326, issuer: Beijing Science and Technology Commission, age at the start of administration: 5-6 weeks.
Guinea pigs were sensitized by intraperitoneal injection of the sample of Example 2 and Addaven every other day for three consecutive days. In the allergic reaction test, 0.9% sodium chloride injection (Lot No.: 6B20060706, Shandong Qidu Pharmaceutical Co., Ltd.) was selected as the compatibility solution. Test sample low-dose group was administered with the clinically intended concentration of the test sample solution, and test sample high-dose group was administered with twice the concentration of the test sample solution. The administration volume was 0.5 mL/animal for each group. On the 14th and 21st days after the last sensitization, twice the sensitization dose of the product was intravenously injected for irritation, respectively.
Negative control group: 0.9% sodium chloride injection; […]

Turning to bovine serum albumin, the allergic reactions result runs as follows: (irritation on the 14th day after the last sensitization) “strongly positive to extremely strong positive”; (irritation on the 21st day after the last sensitization) “strongly positive to extremely strong positive”.
